{"source": "paper PMC3159453", "about": "(Nucleic Acids Research, 2011)", "binders": {"B1": {"name": "LexA C-terminal fragment (CTD), product of self-cleavage (domain or fragment, E. coli K-12 strain RW118, UniProt P0A7C2 85-202, looked up)", "chain": "GEPLLAQQHIEGHYQVDPSLFKPNADFLLRVSGMSMKDIGIMDGDLLAVHKTQDVRNGQVVVARIDDEVTVKRLKKQGNKVELLPENSEFKPIVVDLRQQSFTIEGLAVGVIRNGDWL"}, "B2": {"name": "tisB operator 24 bp (Tis_1b/Tis_2b) (dsDNA)", "DNA 1": "TTTACTGTATAAATAAACAGTAAT", "DNA 2": "ATTACTGTTTATTTATACAGTAAA"}, "B3": {"name": "LexA54 (Gly54 replaced by Cys), oxidized (natural protein, E. coli K-12 strain RW118, UniProt P0A7C2 1-202, looked up)", "chain": "MKALTARQQEVFDLIRDHISQTGMPPTRAEIAQRLGFRSPNAAEEHLKALARKCVIEIVSGASRGIRLLQEEEEGLPLVGRVAAGEPLLAQQHIEGHYQVDPSLFKPNADFLLRVSGMSMKDIGIMDGDLLAVHKTQDVRNGQVVVARIDDEVTVKRLKKQGNKVELLPENSEFKPIVVDLRQQSFTIEGLAVGVIRNGDWL", "modifications": "covalently bound at residue 54 after oxidation with 0.1 mM CuSO4 and 0.5 mM 1,10-phenantroline"}, "B4": {"name": "LexA29 spin labeled (A29R1) (natural protein, E. coli K-12 strain RW118, UniProt P0A7C2 1-202, looked up)", "chain": "B3 chain with A29C, C54G", "modifications": "MTSSL nitroxide spin label (R1) on the cysteine at position 29"}, "B5": {"name": "LexA54 spin labeled (G54R1) (natural protein, E. coli K-12 strain RW118, UniProt P0A7C2 1-202, looked up)", "chain": "B3 chain", "modifications": "MTSSL nitroxide spin label (R1) on the cysteine at position 54"}}, "key": {"[1]": {"biological_target": "T1, LexA repressor (wild type) (E. coli K-12 strain RW118, UniProt P0A7C2 1-202)", "T1 sequence (looked up)": "B3 chain with C54G", "assay": "cross-linking"}, "[2]": {"biological_target": "the molecule itself", "assay": "cross-linking"}, "[3]": {"biological_target": "LexA A29R1 (LexA29) (Escherichia coli K-12 RW118, UniProt P0A7C2 1-202, A29C)", "assay": "EPR"}, "[4]": {"biological_target": "LexA G54R1 (LexA54) (Escherichia coli K-12 RW118, UniProt P0A7C2 1-202, G54C)", "assay": "EPR"}, "[5]": {"biological_target": "the molecule itself", "assay": "cross-linking", "remark": "listed apart in the source"}, "[6]": {"biological_target": "the molecule itself", "assay": "EPR"}}, "note": "Residue numbers refer to the chain shown, from its start."}
{"binder": "B1", "values": [{"measurement": "binding result", "setting": "[1]", "value": "binds"}, {"measurement": "binding result", "setting": "[2]", "value": "binds"}]}
{"binder": "B2", "values": [{"measurement": "binding result", "setting": "[3]", "value": "binds"}, {"measurement": "binding result", "setting": "[4]", "value": "binds"}]}
{"binder": "B3", "values": [{"measurement": "binding result", "setting": "[5]", "value": "binds"}]}
{"binder": "B4", "values": [{"measurement": "binding result", "setting": "[6]", "value": "binds"}]}
{"binder": "B5", "values": [{"measurement": "binding result", "setting": "[6]", "value": "binds"}]}
